One molecule from PMC12680531 (2026) can be followed below.

For the experiment, the target named is 12A8. The experiment in a line: SPR.

No end group written: not given here.

As for TWGYPFHDGDYLNDE (also: biotin, position not given here, GSAGGS spacer, position not given here) [biotinylated hTM4SF4 (T126-E140) peptide containing a GSAGGS spacer], the Kd is 8.34 nM.
